Reference: article PMC8204385 (Biophysical Journal, 2021)
Values joined by “and” are separate entries in the source; they are usually repeats but may differ in a detail not shown here. Identical values can stand only once.

Biological target: T1, human SHP-1 (Homo sapiens, UniProt P29350)
T1 construct: 6xHis (N); made in house; host or cells: Escherichia coli BL21-CodonPlus (DE3)-RIPL
Assay: SPR-based assay for tethered SHP-1 reactions on immobilised phosphopeptides, extended MPDPDE model fit
Type: binding
Settings: 37°C; vertical intercept of regression of L^2 vs number of PEG linkers, all data except PEG0

T1 sequence (P29350 whole entry): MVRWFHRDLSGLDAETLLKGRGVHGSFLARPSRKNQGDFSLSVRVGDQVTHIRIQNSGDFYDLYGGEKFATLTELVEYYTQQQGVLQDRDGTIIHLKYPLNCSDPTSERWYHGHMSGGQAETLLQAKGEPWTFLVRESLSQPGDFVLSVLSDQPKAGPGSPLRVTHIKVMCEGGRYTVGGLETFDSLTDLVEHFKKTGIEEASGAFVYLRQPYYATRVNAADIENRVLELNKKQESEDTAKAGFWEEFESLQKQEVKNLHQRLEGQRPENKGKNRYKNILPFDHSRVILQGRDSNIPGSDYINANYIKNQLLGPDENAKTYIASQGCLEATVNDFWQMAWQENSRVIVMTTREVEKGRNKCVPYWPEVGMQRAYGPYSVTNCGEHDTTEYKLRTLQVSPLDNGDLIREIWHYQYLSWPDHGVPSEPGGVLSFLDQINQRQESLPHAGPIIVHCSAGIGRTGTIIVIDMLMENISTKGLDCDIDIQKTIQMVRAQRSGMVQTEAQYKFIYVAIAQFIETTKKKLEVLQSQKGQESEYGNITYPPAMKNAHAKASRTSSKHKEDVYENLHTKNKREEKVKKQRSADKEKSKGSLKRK

## SHP-1: Human tyrosine phosphatase SHP-1 with an N-terminal 6× His tag produced in Escherichia coli
  molecular reach of SHP-1 (LSHP-1): 13.0 nm and 13.0 ± 0.8 nm
